Values quoted from earlier work, collected in paper PMC2933916.

Molecular target: S100B (UniProt P04271)

Kd: < 500 pM
Substance: S100B (from UniProt P04271)
